B1: L5 isolate with insertion SEQ ID NO: 422 (other)
chain: EPKSCDKTHTCPPCPAPELLGGPSVFLFPPKPKDTLMISRTPEVTCVVVDVSHEDPEVKFNWYVDGVEVHNAKTKPREEQYNSTYRVVSVLTVLHQDWLNGKEYKCKVSNKALPAPIEKTISKAKGQPREPQVYTLPPSRDELTKNQVSLTCLVKGFYPSDIAVEWESNGGCQHSPPLCGGGQPENNYKTTPPVLDSDGSFFLYSKLTVDKSRWQQGNVFSCSVMHEALHNHYTQKSLSLSPGK
B2: L5 isolate with insertion SEQ ID NO: 452 (other)
chain: B1 chain with Q173W, H174M, S175W, P176A, P177E, L178E
B3: L5 isolate with insertion SEQ ID NO: 434 (other)
chain: B1 chain with Q173M, H174P, S175Y, P176E, P177M, L178H
B4: L5 isolate with insertion SEQ ID NO: 423 (other)
chain: B1 chain with Q173N, S175E, P176E, P177T, L178F
B5: L5 isolate with insertion SEQ ID NO: 480 (other)
chain: B1 chain with Q173A, H174G, S175P, P176Y, P177W, L178A
B6: L5 isolate with insertion SEQ ID NO: 424 (other)
chain: B1 chain with H174Y, S175P, P176R, P177K
B7: L5 isolate with insertion SEQ ID NO: 429 (other)
chain: B1 chain with Q173P, H174P, S175W, P177E, L178R
B8: L5 isolate with insertion SEQ ID NO: 483 (other)
chain: B1 chain with Q173P, H174Q, S175H, P176G, P177E, L178M
B9: L5 isolate with insertion SEQ ID NO: 428 (other)
chain: B1 chain with Q173E, H174M, S175E, P176N, P177A, L178W
B10: L5 isolate with insertion SEQ ID NO: 439 (other)
chain: B1 chain with Q173H, S175K, P176Q, P177D, L178Q
B11: L5 isolate with insertion SEQ ID NO: 449 (other)
chain: B1 chain with Q173L, H174Q, S175N, P176L, P177Y, L178V
B12: L5 isolate with insertion SEQ ID NO: 436 (other)
chain: B1 chain with Q173A, H174E, S175R, P176Q, P177Y, L178Y
B13: L5 isolate with insertion SEQ ID NO: 445 (other)
chain: B1 chain with Q173P, H174L, S175V, P176R, P177A, L178D
B14: L5 isolate with insertion SEQ ID NO: 453 (other)
chain: B1 chain with Q173V, S175N, P176D, P177K
B15: L5 isolate with insertion SEQ ID NO: 444 (other)
chain: B1 chain with Q173H, H174A, S175P, P176Q, P177W, L178E
B16: L5 isolate with insertion SEQ ID NO: 477 (other)
chain: B1 chain with H174Q, S175I, P176K, P177E, L178W
B17: L5 isolate with insertion SEQ ID NO: 441 (other)
chain: B1 chain with Q173E, H174A, S175T, P176M, P177T, L178W
B18: L5 isolate with insertion SEQ ID NO: 463 (other)
chain: B1 chain with Q173M, P177H, L178A
B19: L5 isolate with insertion SEQ ID NO: 446 (other)
chain: B1 chain with Q173M, S175N, P176E, P177E, L178F
B20: L5 isolate with insertion SEQ ID NO: 451 (other)
chain: B1 chain with Q173N, H174L, S175G, P176H, P177M, L178P
B21: L5 isolate with insertion SEQ ID NO: 431 (other)
chain: B1 chain with Q173N, H174E, S175P, P176K, P177Y, L178V
B22: L5 isolate with insertion SEQ ID NO: 426 (other)
chain: B1 chain with Q173M, H174Q, S175P, P176W, P177I, L178N
B23: L5 isolate with insertion SEQ ID NO: 462 (other)
chain: B1 chain with Q173D, H174W, S175H, P176R, P177M, L178K
B24: L5 isolate with insertion SEQ ID NO: 459 (other)
chain: B1 chain with Q173P, H174G, S175H, P176E, P177F, L178R
B25: L5 isolate with insertion SEQ ID NO: 481 (other)
chain: B1 chain with Q173E, H174Q, S175Q, P176F, P177V, L178T
B26: L5 isolate with insertion SEQ ID NO: 475 (other)
chain: B1 chain with Q173L, H174G, S175L, P176R, P177Q, L178E
B27: L5 isolate with insertion SEQ ID NO: 470 (other)
chain: B1 chain with Q173E, H174A, P176G, P177Q, L178I
B28: L5 isolate with insertion SEQ ID NO: 432 (other)
chain: B1 chain with Q173D, H174R, S175P, P176V, P177W, L178F
B29: L5 isolate with insertion SEQ ID NO: 479 (other)
chain: B1 chain with Q173M, H174F, P176H, L178H
B30: L5 isolate with insertion SEQ ID NO: 482 (other)
chain: B1 chain with Q173M, H174G, S175W, P176W, P177H
B31: L5 isolate with insertion SEQ ID NO: 430 (other)
chain: B1 chain with Q173H, H174D, S175P, P176E, L178F
B32: L5 isolate with insertion SEQ ID NO: 443 (other)
chain: B1 chain with Q173S, H174R, S175V, P176F, P177K, L178Y
B33: L5 isolate with insertion SEQ ID NO: 425 (other)
chain: B1 chain with Q173I, H174G, S175P, P176F, P177W, L178W
B34: L5 isolate with insertion SEQ ID NO: 438 (other)
chain: B1 chain with Q173K, H174S, S175M, P176I, P177S, L178M
B35: L5 isolate with insertion SEQ ID NO: 464 (other)
chain: B1 chain with Q173M, H174M, S175W, P176K, P177V, L178N
B36: L5 isolate with insertion SEQ ID NO: 450 (other)
chain: B1 chain with H174T, P176M, P177K, L178N
B37: L5 isolate with insertion SEQ ID NO: 461 (other)
chain: B1 chain with Q173K, H174W, P176M, P177T, L178K
B38: L5 isolate with insertion SEQ ID NO: 435 (other)
chain: B1 chain with Q173K, H174R, S175E, P176N, L178Y
B39: L5 isolate with insertion SEQ ID NO: 456 (other)
chain: B1 chain with Q173Y, H174P, S175Q, P176K, P177E, L178I
B40: L5 isolate with insertion SEQ ID NO: 447 (other)
chain: B1 chain with Q173M, H174F, S175E, P176T, P177K, L178W
B41: L5 isolate with insertion SEQ ID NO: 478 (other)
chain: B1 chain with Q173D, H174L, S175P, P176N, P177E, L178M
B42: L5 isolate with insertion SEQ ID NO: 433 (other)
chain: B1 chain with Q173E, H174I, S175P, P176H, P177S, L178F

Changes are numbered by the printed parent chain.
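Also: higher score means stronger binding and above about 3 to 5 exceeds background.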

In one test the target is T1, human neonatal Fc receptor (hFcRn) (human, UniProt P55899 24-290; P61769 21-119).
T1 construct: Biotinylated in the ELISA, Octet and yeast assays; also called human FcRn; huFcRn
T1 sequence (P55899 24-290 limits assumed, chain 1 of 2): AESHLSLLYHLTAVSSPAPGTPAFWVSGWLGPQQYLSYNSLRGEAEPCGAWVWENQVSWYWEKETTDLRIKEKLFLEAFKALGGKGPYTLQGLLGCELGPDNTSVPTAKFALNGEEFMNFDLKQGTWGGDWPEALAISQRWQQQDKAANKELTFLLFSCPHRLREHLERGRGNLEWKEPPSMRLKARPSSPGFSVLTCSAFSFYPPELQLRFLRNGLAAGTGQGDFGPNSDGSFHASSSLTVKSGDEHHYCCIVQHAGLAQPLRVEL
T1 sequence (P61769 21-119 limits assumed, chain 2 of 2): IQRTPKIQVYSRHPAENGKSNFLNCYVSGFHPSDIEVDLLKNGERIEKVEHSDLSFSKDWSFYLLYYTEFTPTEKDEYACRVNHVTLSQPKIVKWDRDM
The test is described as follows: phage ELISA pH 6. The method, then:
(§1) Approximately 100 μL of biotinylated human FcRn at 2 μg/mL was added to the wells of MAXISORP™ plates coated with 10 μg/mL streptavidin. After washing with PBS plus 0.05% Tween 20 (PBST) five times, phage from the overnight cultures in MES buffer at pH 6.0 or pH 7.4 were added to the plates and incubated at room temperature for 1 hr. A horseradish peroxidase (HRP)-conjugated anti-M13 antibody was used to detect the binding phage, and the plates were scored by a microtiter plate reader using a wavelength in the visible range.
(§2) Binding was assessed by a quantitative enzyme-linked immunoadsorbent assay (ELISA). The ELISA scores reflect binding affinity, with higher scores meaning higher affinity. Typically, scores higher than about 3˜5 indicate binding above background. For library L5, the insertions are between the N169 and G170 according to the numbering in FIG. 2. For libraries 6A and 6B, the insertions are between L143 and T144 according to the numbering in FIG. 2.
In general terms: ELISA stands for enzyme-linked immunosorbent assay.
Turning to B1, the ELISA score came out at 60.3.

As to B2, the ELISA score turned out to be 50.5.

B3 gave an ELISA score of 56.7.

In the case of B4, the ELISA score worked out at 60.2.

The molecule B5 had an ELISA score of 33.7.

The molecule B6 returned an ELISA score of 59.6.

The molecule B7 showed an ELISA score of 58.3.

In the case of B8, the ELISA score was determined as 28.4.

As for B9, the ELISA score amounted to 58.5.

B10: the ELISA score is 54.9.

B11 yielded an ELISA score of 51.6.

Regarding B12, the ELISA score turned out to be 55.5.

B13: the ELISA score was 53.2.

As to B14, the ELISA score was 50.3.

Consider B15, for which the ELISA score is 53.2.

Take B16: the ELISA score was 38.7.

On to B17, for which the ELISA score worked out at 54.7.

Turning to B18, the ELISA score worked out at 46.8.

Take B19: the ELISA score stood at 53.2.

Turning to B20, the ELISA score stood at 51.1.

In the case of B21, the ELISA score stood at 57.7.

As for B22, the ELISA score was 59.2.

As for B23, the ELISA score was 47.

B24: the ELISA score stood at 48.2.

In the case of B25, the ELISA score turned out to be 31.1.

Molecule B26 displayed an ELISA score of 41.1.

Consider B27, for which the ELISA score turned out to be 42.4.

B28 had an ELISA score of 57.7.

Molecule B29 yielded an ELISA score of 35.8.

With B30, the ELISA score came to 29.5.

B31 yielded an ELISA score of 57.7.

With B32, the ELISA score was 54.2.

On to B33, for which the ELISA score amounted to 59.2.

B34 showed an ELISA score of 55.2.

Take B35: the ELISA score came to 46.2.

In turn, B36 displayed an ELISA score of 51.3.

B37 had an ELISA score of 47.2.

For the molecule B38, the ELISA score amounted to 55.6.

In turn, B39 came in with an ELISA score of 49.8.

For the molecule B40, the ELISA score is 52.4.

With B41, the ELISA score was 36.1.

B42 showed an ELISA score of 57.2.

A further test deals with T1, human neonatal Fc receptor (hFcRn). Description: phage ELISA pH 7.4. The method, then: as §1, §2
B1 showed an ELISA score of 0.3.

As to B2, the ELISA score worked out at 1.

B3 displayed an ELISA score of 0.4.

B4 showed an ELISA score of 0.4.

With B5, the ELISA score is 0.7.

Molecule B6 had an ELISA score of 0.3.

Regarding B7, the ELISA score came to 0.3.

Take B8: the ELISA score worked out at 0.5.

For B9, the ELISA score came to 0.5.

In turn, B10 came in with an ELISA score of 0.6.

On to B11, for which the ELISA score stood at 0.4.

Turning to B12, the ELISA score was 1.4.

The molecule B13 displayed an ELISA score of 0.4.

As to B14, the ELISA score was 0.4.

The molecule B15 registered an ELISA score of 0.3.

B16: the ELISA score is 1.6.

Take B17: the ELISA score came out at 0.6.

B18 yielded an ELISA score of 3.6.

In the case of B19, the ELISA score stood at 0.4.

B20 showed an ELISA score of 0.4.

With B21, the ELISA score amounted to 0.5.

On to B22, for which the ELISA score worked out at 0.3.

Regarding B23, the ELISA score is 1.4.

As for B24, the ELISA score came to 1.8.

Regarding B25, the ELISA score was determined as 0.8.

B26 gave an ELISA score of 1.6.

Molecule B27 displayed an ELISA score of 1.6.

As to B28, the ELISA score amounted to 0.5.

For the molecule B29, the ELISA score came out at 0.7.

Molecule B30 yielded an ELISA score of 1.2.

On to B31, for which the ELISA score worked out at 0.4.

Turning to B32, the ELISA score turned out to be 0.7.

Take B33: the ELISA score turned out to be 0.3.

In turn, B34 came in with an ELISA score of 0.2.

B35: the ELISA score was determined as 0.9.

B36 gave an ELISA score of 0.2.

Take B37: the ELISA score was found to be 0.9.

Turning to B38, the ELISA score was 0.7.

B39 yielded an ELISA score of 0.6.

Molecule B40 came in with an ELISA score of 1.2.

B41 yielded an ELISA score of 1.

As for B42, the ELISA score amounted to 0.7.

These data come from patent US20140356358A1 (Amgen, published 2014).
